In patent US6794168B1, “Process for oxidising aromatic compounds” (Isis Innovation Limited, priority 1999, dated 2004):

Key:
P450cam = assay: Oxidation of further halo aromatic substrates by P450cam enzymes; format: biochemical, Pseudomonas putida; settings: substrate of P450cam enzymes
Description: (§1) 50 mM Tris-HCl buffer pH 7.4 is added to make up the volume.
(§2) Temperature controlled at 30° C., optional.
(§3) The NADH turnover rate could be determined by monitoring the absorbance at 340 nm with time.
(§4) All mutants have C334A. Coupling efficiency is the percentage of NADH consumed which was utilised for product formation, i.e. a percentage of the theoretical maximum efficiency. The product formation rates are given in (nmol product) (nmol P450cam)^−1(min)^−1. The relative amount of product formed in each case is shown. 1,3- and 1,4-dichlorobenzene, 1,2,3- and 1,3,5-trichlorobenzene, 1,2,4,5- and 1,2,3,5-tetrachlorobenzene, and […] and 2,2′,4,5,5′-pentachlorobiphenyl were also found to be oxidised.

[1] = Oxidation of halo aromatic compounds by P450cam mutants in vitro, trichlorophenol products; format: biochemical; settings: for Product formation rate: (nmol product)(nmol P450cam)^−1(min)^−1; for Product formation rate / Coupling Efficiency (%): trichlorophenol products; for Coupling Efficiency (%): percentage of NADH consumed utilised for product formation; for 2,3,6-Trichlorophenol (relative amount of product formed) / 3,4,6-Trichlorophenol (relative amount of product formed): substrate not named, all mutants have C334A
Description: as §1, §2, §3, §4

[2] = Oxidation of halo aromatic compounds by P450cam mutants in vitro, dichlorophenol products; format: biochemical; settings: for Product formation rate: (nmol product)(nmol P450cam)^−1(min)^−1; for Product formation rate / Coupling Efficiency (%): dichlorophenol products; for Coupling Efficiency (%): percentage of NADH consumed utilised for product formation; for 2,3-Dichlorophenol (relative amount of product formed) / 3,4-Dichlorophenol (relative amount of product formed): substrate not named, all mutants have C334A
Description: as §1, §2, §3, §4

| Molecule | found to be oxidised (P450cam) | Product formation rate [1] | Product formation rate [2] | other results |
| --- | --- | --- | --- | --- |
| Clc1ccc(Cl)c(-c2cc(Cl)c(Cl)cc2Cl)c1 [2,2′,4,5,5′-pentachlorobiphenyl] | oxidised |  |  |  |
| Clc1ccc(Cl)cc1 [1,4-dichlorobenzene] | oxidised |  |  |  |
| Clc1c(Cl)c(Cl)c(-c2ccccc2)c(Cl)c1Cl [2,3,4,5,6-pentachlorobiphenyl] | oxidised |  |  |  |
| Clc1cc(Cl)c(Cl)c(Cl)c1 [1,2,3,5-tetrachlorobenzene] | oxidised |  |  |  |
| Clc1cc(Cl)cc(Cl)c1 [1,3,5-trichlorobenzene] | oxidised |  |  |  |
| Clc1cccc(Cl)c1Cl [1,2,3-trichlorobenzene] | oxidised |  |  |  |
| Clc1cc(Cl)c(Cl)cc1Cl [1,2,4,5-tetrachlorobenzene] | oxidised |  |  |  |
| Clc1cccc(Cl)c1 [1,3-dichlorobenzene] | oxidised |  |  |  |
| F87A-Y96F: P450cam mutant (with C334A) (protein, UniProt P00183 2-415, looked up, variant F87A Y96F C334A) Camphor 5-monooxygenase: TTETIQSNANLAPLPPHVPEHLVFDFDMYNPSNLSAGVQEAWAVLQESNVPDLVWTRCNGGHWIATRGQLIREAYEDYRHFSSECPAIPREAGEAFDFIPTSMDPPEQRQFRALANQVVGMPVVDKLENRIQELACSLIESLRPQGQCNFTEDYAEPFPIRIFMLLAGLPEEDIPHLKYLTDQMTRPDGSMTFAEAKEALYDYLIPIIEQRRQKPGTDAISIVANGQVNGRPITSDEAKRMCGLLLVGGLDTVVNFLSFSMEFLAKSPEHRQELIERPERIPAACEELLRRFSLVADGRILTSDYEFHGVQLKKGDQILLPQMLSGLDERENAAPMHVDFSRQKVSHTTFGHGSHLCLGQHLARREIIVTLKEWLTRIPDFSIAPGAQIQHKSGIVSGVQALPLVWDPATTKAV |  | 3 min⁻¹ |  |  |
| Y96F: P450cam mutant (with C334A) (protein, UniProt P00183 2-415, looked up, variant Y96F C334A) Camphor 5-monooxygenase: TTETIQSNANLAPLPPHVPEHLVFDFDMYNPSNLSAGVQEAWAVLQESNVPDLVWTRCNGGHWIATRGQLIREAYEDYRHFSSECPFIPREAGEAFDFIPTSMDPPEQRQFRALANQVVGMPVVDKLENRIQELACSLIESLRPQGQCNFTEDYAEPFPIRIFMLLAGLPEEDIPHLKYLTDQMTRPDGSMTFAEAKEALYDYLIPIIEQRRQKPGTDAISIVANGQVNGRPITSDEAKRMCGLLLVGGLDTVVNFLSFSMEFLAKSPEHRQELIERPERIPAACEELLRRFSLVADGRILTSDYEFHGVQLKKGDQILLPQMLSGLDERENAAPMHVDFSRQKVSHTTFGHGSHLCLGQHLARREIIVTLKEWLTRIPDFSIAPGAQIQHKSGIVSGVQALPLVWDPATTKAV |  | 22 min⁻¹ | 8 min⁻¹ |  |
| F87A-Y96F-V247A: P450cam mutant (with C334A) (protein, UniProt P00183 2-415, looked up, variant F87A Y96F V247A C334A) Camphor 5-monooxygenase: TTETIQSNANLAPLPPHVPEHLVFDFDMYNPSNLSAGVQEAWAVLQESNVPDLVWTRCNGGHWIATRGQLIREAYEDYRHFSSECPAIPREAGEAFDFIPTSMDPPEQRQFRALANQVVGMPVVDKLENRIQELACSLIESLRPQGQCNFTEDYAEPFPIRIFMLLAGLPEEDIPHLKYLTDQMTRPDGSMTFAEAKEALYDYLIPIIEQRRQKPGTDAISIVANGQVNGRPITSDEAKRMCGLLLAGGLDTVVNFLSFSMEFLAKSPEHRQELIERPERIPAACEELLRRFSLVADGRILTSDYEFHGVQLKKGDQILLPQMLSGLDERENAAPMHVDFSRQKVSHTTFGHGSHLCLGQHLARREIIVTLKEWLTRIPDFSIAPGAQIQHKSGIVSGVQALPLVWDPATTKAV |  | 7 min⁻¹ |  |  |
| F87L-Y96F: P450cam mutant (with C334A) (protein, UniProt P00183 2-415, looked up, variant F87L Y96F C334A) Camphor 5-monooxygenase: TTETIQSNANLAPLPPHVPEHLVFDFDMYNPSNLSAGVQEAWAVLQESNVPDLVWTRCNGGHWIATRGQLIREAYEDYRHFSSECPLIPREAGEAFDFIPTSMDPPEQRQFRALANQVVGMPVVDKLENRIQELACSLIESLRPQGQCNFTEDYAEPFPIRIFMLLAGLPEEDIPHLKYLTDQMTRPDGSMTFAEAKEALYDYLIPIIEQRRQKPGTDAISIVANGQVNGRPITSDEAKRMCGLLLVGGLDTVVNFLSFSMEFLAKSPEHRQELIERPERIPAACEELLRRFSLVADGRILTSDYEFHGVQLKKGDQILLPQMLSGLDERENAAPMHVDFSRQKVSHTTFGHGSHLCLGQHLARREIIVTLKEWLTRIPDFSIAPGAQIQHKSGIVSGVQALPLVWDPATTKAV |  | 8 min⁻¹ | 5 min⁻¹ |  |
| Y96A: P450cam mutant (with C334A) (protein, UniProt P00183 2-415, looked up, variant Y96A C334A) Camphor 5-monooxygenase: TTETIQSNANLAPLPPHVPEHLVFDFDMYNPSNLSAGVQEAWAVLQESNVPDLVWTRCNGGHWIATRGQLIREAYEDYRHFSSECPFIPREAGEAADFIPTSMDPPEQRQFRALANQVVGMPVVDKLENRIQELACSLIESLRPQGQCNFTEDYAEPFPIRIFMLLAGLPEEDIPHLKYLTDQMTRPDGSMTFAEAKEALYDYLIPIIEQRRQKPGTDAISIVANGQVNGRPITSDEAKRMCGLLLVGGLDTVVNFLSFSMEFLAKSPEHRQELIERPERIPAACEELLRRFSLVADGRILTSDYEFHGVQLKKGDQILLPQMLSGLDERENAAPMHVDFSRQKVSHTTFGHGSHLCLGQHLARREIIVTLKEWLTRIPDFSIAPGAQIQHKSGIVSGVQALPLVWDPATTKAV |  | 33 min⁻¹ | 19 min⁻¹ | Coupling Efficiency (%) [1]: 14%; 2,3,6-Trichlorophenol (relative amount of product formed) [1]: 77; 3,4,6-Trichlorophenol (relative amount of product formed) [1]: 23; Coupling Efficiency (%) [2]: 6%; 2,3-Dichlorophenol (relative amount of product formed) [2]: 94; 3,4-Dichlorophenol (relative amount of product formed) [2]: 6 |
| Y96L-V247A: P450cam mutant (with C334A) (protein, UniProt P00183 2-415, looked up, variant Y96L V247A C334A) Camphor 5-monooxygenase: TTETIQSNANLAPLPPHVPEHLVFDFDMYNPSNLSAGVQEAWAVLQESNVPDLVWTRCNGGHWIATRGQLIREAYEDYRHFSSECPFIPREAGEALDFIPTSMDPPEQRQFRALANQVVGMPVVDKLENRIQELACSLIESLRPQGQCNFTEDYAEPFPIRIFMLLAGLPEEDIPHLKYLTDQMTRPDGSMTFAEAKEALYDYLIPIIEQRRQKPGTDAISIVANGQVNGRPITSDEAKRMCGLLLAGGLDTVVNFLSFSMEFLAKSPEHRQELIERPERIPAACEELLRRFSLVADGRILTSDYEFHGVQLKKGDQILLPQMLSGLDERENAAPMHVDFSRQKVSHTTFGHGSHLCLGQHLARREIIVTLKEWLTRIPDFSIAPGAQIQHKSGIVSGVQALPLVWDPATTKAV |  |  | 0.7 min⁻¹ | Coupling Efficiency (%) [2]: 2%; 2,3-Dichlorophenol (relative amount of product formed) [2]: 90; 3,4-Dichlorophenol (relative amount of product formed) [2]: 10 |
| C334A: P450cam with only the base mutation C334A (protein, UniProt P00183 2-415, looked up, variant C334A) Camphor 5-monooxygenase: TTETIQSNANLAPLPPHVPEHLVFDFDMYNPSNLSAGVQEAWAVLQESNVPDLVWTRCNGGHWIATRGQLIREAYEDYRHFSSECPFIPREAGEAYDFIPTSMDPPEQRQFRALANQVVGMPVVDKLENRIQELACSLIESLRPQGQCNFTEDYAEPFPIRIFMLLAGLPEEDIPHLKYLTDQMTRPDGSMTFAEAKEALYDYLIPIIEQRRQKPGTDAISIVANGQVNGRPITSDEAKRMCGLLLVGGLDTVVNFLSFSMEFLAKSPEHRQELIERPERIPAACEELLRRFSLVADGRILTSDYEFHGVQLKKGDQILLPQMLSGLDERENAAPMHVDFSRQKVSHTTFGHGSHLCLGQHLARREIIVTLKEWLTRIPDFSIAPGAQIQHKSGIVSGVQALPLVWDPATTKAV |  |  | 0.5 min⁻¹ | Coupling Efficiency (%) [2]: 2%; 2,3-Dichlorophenol (relative amount of product formed) [2]: 95; 3,4-Dichlorophenol (relative amount of product formed) [2]: 5 |
| Y96A-V247L: P450cam mutant (with C334A) (protein, UniProt P00183 2-415, looked up, variant Y96A V247L C334A) Camphor 5-monooxygenase: TTETIQSNANLAPLPPHVPEHLVFDFDMYNPSNLSAGVQEAWAVLQESNVPDLVWTRCNGGHWIATRGQLIREAYEDYRHFSSECPFIPREAGEAADFIPTSMDPPEQRQFRALANQVVGMPVVDKLENRIQELACSLIESLRPQGQCNFTEDYAEPFPIRIFMLLAGLPEEDIPHLKYLTDQMTRPDGSMTFAEAKEALYDYLIPIIEQRRQKPGTDAISIVANGQVNGRPITSDEAKRMCGLLLLGGLDTVVNFLSFSMEFLAKSPEHRQELIERPERIPAACEELLRRFSLVADGRILTSDYEFHGVQLKKGDQILLPQMLSGLDERENAAPMHVDFSRQKVSHTTFGHGSHLCLGQHLARREIIVTLKEWLTRIPDFSIAPGAQIQHKSGIVSGVQALPLVWDPATTKAV |  |  | 20 min⁻¹ |  |
| Y96H: P450cam mutant (with C334A) (protein, UniProt P00183 2-415, looked up, variant Y96H C334A) Camphor 5-monooxygenase: TTETIQSNANLAPLPPHVPEHLVFDFDMYNPSNLSAGVQEAWAVLQESNVPDLVWTRCNGGHWIATRGQLIREAYEDYRHFSSECPFIPREAGEAHDFIPTSMDPPEQRQFRALANQVVGMPVVDKLENRIQELACSLIESLRPQGQCNFTEDYAEPFPIRIFMLLAGLPEEDIPHLKYLTDQMTRPDGSMTFAEAKEALYDYLIPIIEQRRQKPGTDAISIVANGQVNGRPITSDEAKRMCGLLLVGGLDTVVNFLSFSMEFLAKSPEHRQELIERPERIPAACEELLRRFSLVADGRILTSDYEFHGVQLKKGDQILLPQMLSGLDERENAAPMHVDFSRQKVSHTTFGHGSHLCLGQHLARREIIVTLKEWLTRIPDFSIAPGAQIQHKSGIVSGVQALPLVWDPATTKAV |  | 1 min⁻¹ |  | Coupling Efficiency (%) [1]: 3%; 2,3,6-Trichlorophenol (relative amount of product formed) [1]: 54; 3,4,6-Trichlorophenol (relative amount of product formed) [1]: 46 |
